Experimental data reported in paper doi:10.64898/2025.12.30.697126 (bioRxiv, 2025).

Biological target: single-chain H2B-H2A.Z (human)
Test: crystal structure

binding result: binds
B1: Peptide SRCAP_(531-560) (peptide)
peptide: SEDAQSQSQADEEEEDDDFGVEYLLARDEE
